“And” between values parts separate entries of the source, which are not always exact repeats. Identical values can stand only once.
Biological target: the molecule itself
Experiment: crystal structure

B1: African swine fever virus p15 (mature protein p15, wild type) (natural protein)
chain: MPSNMKQFCKISVWLQQHDPDLLEIINNLCMLGNLSAAKYKHGVTFIYPKQAKIRDEIKKHAYSNDPSQAIKTLESLILPFYIPTPAEFTGEIGSYTGVKLEVEKTEANKVILKNGEAVLVPAADFKPFPDRRLAVWIMESGSMPLEGPPYKRKKEGG
- stoichiometry N: 2 and 6
